The subject of data set [1] is cUNG (Atlantic cod uracil-DNA glycosylase). Kind of data set: Product inhibition of cUNG with free uracil. The format is biochemical, Atlantic cod (Gadus morhua). The protocol: Different concentrations of uracil was added to the assay mixture and the assay performed as described in material and methods. Uracil-DNA glycosylase activity was measured in a final volume of 20 μl, containing 70 mM Tris/HCl, 10 mM NaCl, 1 mM EDTA, 100 μg/ml BSA and 230 ng nick-substrate or 71 ng PCR-substrate. The reaction mixture was incubated 10 min at 37° C., and terminated with the addition of 20 μl of ice cold single stranded calf thymus DNA (1 mg/ml) and 500 μl 10% (w/v) TCA. Samples were incubated on ice for 15 min, and centrifuged at 16,000 g for 10 min. Supernatants with acid soluble ^3H-uracil were analyzed using a liquid scintillation counter. Activity measurements using PCR-substrate were performed with 6.65×10^−4 U of purified cUNG. Various concentrations of uracil (0, 1, 2 and 5 mM) or Ugi-inhibitor (1.25×10^3 U to 2.00×10^2 U) were added to the assay mixtures (on ice). Activity was then measured as described under standard assay conditions.

Data set [2] in a line: Effect of temperature on stability (half-life of UNG activity). Format: physicochemical. As to the method: Enzyme (1 U) were incubated at 50° C., 37° C., 25° C. and 4° C., and 5 μl aliquotes were transferred to the assay mixture after different time intervals, and standard assays were performed as described in material and methods. Half-lifes were determined to 0.5 min (50° C.), 20 min (37° C.), 60 min (25° C.) and 2 h (4° C.) for cUNG and 8 min (50° C.) 30 min (37° C.), 150 min (25° C.) and 2.6 h (4° C.) for rhUNG.
(§1) Assays were done in a volume of 20 μl as described in standard assay using the PCR generated substrate. The assay mixtures were as described in standard assay conditions and were adjusted to pH 8.0 for all temperatures. The temperature range used was 5° C. to 60° C. The activity was measured in a sequential manner with 15 min intervals, between each temperature. The enzymes used were diluted in standard dilution buffer (5 mM Tris/HCl, 10 mM NaCl, 1% (v/v) glycerol, pH 8.0) and placed on ice.
Temperature: UNG (0.01 U) was preincubated (in a total volume of 75 μl) in 10 mM Tris/HCl, 50 mM NaCl, 1 mM EDTA, 1% glycerol, pH 8.0 (adjusted at each temperature).

The nature of data set [3]: Effect of pH on stability (residual UNG activity). Format: physicochemical. As to the method:
In the different pH-buffer, 1 U of cUNG (Δ) or rhUNG (□) were incubated for 10 minutes at 37° C. Then 5 μl aliquotes were transfered to the assay mixture, and residual activity was measured using standard assay conditions as described in materials and methods. One hundred percent activity was measured directly from a sample diluted at pH 8.0 without any incubation step.
pH: UNG (0.01 U) was preincubated (in a total volume of 75 μl) for 10 min at 37° in buffers containing 10 mM buffer, 10 mM NaCl, 1 mM EDTA, 1% glycerol, with pH ranging from 9.5-6.5 with 0.5 pH unit intervals using diethanolamine/HCl (9.5-8.5), Tris/HCl (8.5-7.5), MOPS/NaOH (7.5-6.5) and MES/NaOH (6.5-5.5) as buffer components. Aliquots of 5 μl were transferred to the assay mixtures and residual activity was measured using standard assay conditions.

For data set [4], the system named is PCR generated uracil-containing DNA substrate. The data set is described as follows: Determination of temperature optimum / temperature profile. The format is biochemical. The protocol:
Due to prolonged incubation of the enzyme sample on ice during the experiment, activity is corrected with respect to the stability of the enzyme, as described in material and methods.
Enzyme activity was measured as described in material and methods. The percent UNG activity is set relative to the highest value for cUNG (45° C.) and rhUNG (50° C.) respectively. Due to prolonged incubation of the enzyme samples on ice during the experiment, activity is corrected with respect to the stability of the enzymes, as described in material and methods.
as §1

The test system is the same in data set [5]. Conditions: literature value (64); cited from earlier work.
For data set [6], the system named is cUNG (Atlantic cod uracil-DNA glycosylase). Kind of data set: Inhibition of cUNG with uracil-DNA glycosylase inhibitor (Ugi). The format is biochemical, Atlantic cod (Gadus morhua). Conditions: 6.65×10^−4 U cUNG, 1.25×10^3 U to 2.00×10^2 U Ugi. As to the method:
6.65×10^−4 U of cUNG was incubated with 1.25×10^3 U to 2.00×10^2 U of Ugi using standard assay conditions, as described in material and methods. One Unit of Ugi inhibit one Unit of UNG-activity, where the UNG-activty is defined as releasing 60 pmol of uracil per min at 37° C.
Uracil-DNA glycosylase activity was measured in a final volume of 20 μl, containing 70 mM Tris/HCl, 10 mM NaCl, 1 mM EDTA, 100 μg/ml BSA and 230 ng nick-substrate or 71 ng PCR-substrate. The reaction mixture was incubated 10 min at 37° C., and terminated with the addition of 20 μl of ice cold single stranded calf thymus DNA (1 mg/ml) and 500 μl 10% (w/v) TCA. Samples were incubated on ice for 15 min, and centrifuged at 16,000 g for 10 min. Supernatants with acid soluble ^3H-uracil were analyzed using a liquid scintillation counter.
Activity measurements using PCR-substrate were performed with 6.65×10^−4 U of purified cUNG. Various concentrations of uracil (0, 1, 2 and 5 mM) or Ugi-inhibitor (1.25×10^3 U to 2.00×10^2 U) were added to the assay mixtures (on ice). Activity was then measured as described under standard assay conditions.
Target sequence in this assay (as listed by the source): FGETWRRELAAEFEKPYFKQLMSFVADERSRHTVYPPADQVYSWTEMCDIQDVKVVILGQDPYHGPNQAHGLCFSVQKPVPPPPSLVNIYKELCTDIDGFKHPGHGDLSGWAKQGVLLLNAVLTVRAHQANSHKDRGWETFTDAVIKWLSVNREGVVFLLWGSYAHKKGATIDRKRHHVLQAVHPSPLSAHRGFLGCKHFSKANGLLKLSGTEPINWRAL

The conditions of data set [7]: cited from earlier work; for half-life: literature (45).

Like-named read-outs stand apart in the source and are kept apart here.

On to `O=c1cc[nH]c(=O)[nH]1` [uracil], for which the “inhibition of cUNG activity” value in data set [1] (1 mM uracil in the assay mixture) is “more than 50%”; in data set [1] (5 mM free uracil in the assay mixture), 78%.

B1: rhUNG: purified recombinant mesophilic human UNG (UNGΔ84) provided by Dr. Krokan (protein, UniProt P13051 85-304, looked up, fragment)
chain: LAARNVPVGFGESWKKHLSGEFGKPYFIKLMGFVAEERKHYTVYPPPHQVFTWTQMCDIKDVKVVILGQDPYHGPNQAHGLCFSVQRPVPPPPSLENIYKELSTDIEDFVHPGHGDLSGWAKQGVLLLNAVLTVRAHQANSHKERGWEQFTDAVVSWLNQNSNGLVFLLWGSYAQKKGSAIDRKRHHVLQTAHPSPLSVYRGFFGCRHFSKTNELLQKSG
With B1, the half-life in data set [2] (4° C., pH 8.0) amounted to 156 min; in data set [2] (25° C., pH 8.0) it was 150 min; in data set [2] (37° C., pH 8.0) it was 30 min; in data set [2] (50° C., pH 8.0), 8 min; in data set [2] (enzyme in standard dilution buffer on ice) it was 156 min. In data set [3] (pH 10.0, 10 min at 37° C.), this molecule returned a residual activity of 66%. For the same molecule, the “pH range in which most stable” value in data set [3] (preincubated 10 min at 37° C.) was 7.0-9.5. For the same molecule, the “temperature of highest activity value in temperature profile” value in data set [4] (FIG. 6, 5-60° C.) was 50 °C. Moreover, the “relative activity compared with cUNG” value in data set [4] (temperatures higher than 45° C.) is recorded as “higher relative activity”. Besides, in data set [5], the temperature optimum is 45 °C.

B2: Ugi: Bacillus subtilis bacteriophage PBS2 UDG-inhibitor, obtained from New England Biolabs (protein)
chain: MTNLSDIIEKETGKQLVIQESILMLPEEVEEVIGNKPESDILVHTAYDESTDENVMLLTSDAPEYKPWALVIQDSNGENKIKML
As to B2, in data set [6], the “effect of Ugi on cUNG activity” value is reported as “clearly inhibited”.

B3: E. coli UNG: commercially available UNG (or UDG) from Escherichia coli used in carry-over prevention (protein, UniProt P12295 2-229, looked up)
Uracil-DNA glycosylase: ANELTWHDVLAEEKQQPYFLNTLQTVASERQSGVTIYPPQKDVFNAFRFTELGDVKVVILGQDPYHGPGQAHGLAFSVRPGIAIPPSLLNMYKELENTIPGFTRPNHGYLESWARQGVLLLNTVLTVRAGQAHSHASLGWETFTDKVISLINQHREGVVFLLWGSHAQKKGAIIDKQRHHVLKAPHPSPLSAHRGFFGCNHFVLANQWLEQRGETPIDWMPVLPAESE
Turning to B3, the half-life was 27 min in data set [7] (40° C.) and 8 min in data set [7] (45° C.). Also, the “inactivation by heat treatment / reactivation” value in data set [7] (literature (60), (45)) is reported as “not completely inactivated”.

The term half-life denotes the time in which the quantity being followed falls by half. As usually defined, the residual activity is the signal under treatment as a percentage of the control signal. Higher therefore signals much activity left.

These data come from US7037703B2, “COD URACIL-DNA GLYCOSYLASE, GENE CODING THEREFORE, RECOMBINANT DNA CONTAINING SAID GENE OR OPERATIVE PARTS THEREOF, A METHOD FOR PREPARING SAID PROTEIN AND THE USE OF SAID PROTEIN OR SAID OPERATIVE PARTS THEREOF IN MONITORING OR CONTROLLING PCR” (Biotec Pharmacon ASA, priority 2000, dated 2006).
